How the values were obtained:
[1] = molecular target: T1, GST-MORT-1 fusion protein (Homo sapiens, UniProt Q13158); assay: In vitro binding to GST-MORT-1 on glutathione-agarose beads
T1 construct: made in house
T1 sequence (Q13158 1-208): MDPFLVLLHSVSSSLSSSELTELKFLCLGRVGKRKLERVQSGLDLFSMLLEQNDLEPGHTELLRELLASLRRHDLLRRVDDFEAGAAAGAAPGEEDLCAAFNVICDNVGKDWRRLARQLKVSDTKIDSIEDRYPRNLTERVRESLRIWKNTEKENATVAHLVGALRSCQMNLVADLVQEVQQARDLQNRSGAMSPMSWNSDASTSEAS
Excerpt: It has been shown also to contribute to, though not to suffice in, the self association of MORT-1 (see Example 1). […] To further assess the involvement of the MORT modules in these interactions, deletion mutants of MACHβ1, fused with the FLAG octapeptide (FLAG-MACHβ1), were expressed in HeLa cells and assessed for their binding in vitro to bacterial-produced […] fusion protein (GST-MORT-1). […] FIGS. 9A and 9B show the results (autoradiograms) of the in vitro interaction of MACHβ1 and its deletion mutants with MORT-1. Briefly, 35 [S] metabolically labeled MACHβ1, MACHβ1 fused at its N-terminus to the FLAG octapeptide (FLAG-MACHβ1), C-terminus truncation mutants of FLAG-MACHβ1, and, as a control, luciferase, were produced in transfected HeLa cells. Expression was done using a tetracycline-controlled expression vector, in a HeLa cell clone (HtTA-1) that expresses a tetracycline-controlled transactivator.
The antibodies used are as follows: Rabbit anti-MACHβ1 and anti-MORT1 antisera were raised against GST-MACHβ1 and GST-MORT1 fusion proteins. Mouse monoclonal antibodies against the FLAG octapeptide (M2) and against FAS/APO1 (CH11, Yonehara et al, 1989) were purchased from Eastman Kodak and Oncor (Gaithersburg, Md.) respectively. […]

[2] = molecular target: T2, p75 TNF receptor (Homo sapiens, UniProt P20333); assay: Two-hybrid test of MORT-1 binding (FIG. 1), p75 TNF receptor; conditions: p75-IC residues 287-461, FIG. 1
T2 construct: human p75 TNF receptor (p75-IC, residues 287-461); expressed in transfected cells; host or cells: SFY526 yeast
T2 sequence (P20333 287-461): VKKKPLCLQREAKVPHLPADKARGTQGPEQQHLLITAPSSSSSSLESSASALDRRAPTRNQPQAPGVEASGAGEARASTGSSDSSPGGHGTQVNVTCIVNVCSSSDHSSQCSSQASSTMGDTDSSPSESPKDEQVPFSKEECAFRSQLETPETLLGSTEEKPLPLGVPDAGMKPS
Excerpt: To isolate proteins interacting with the intracellular domain of the FAS-R, the yeast two-hybrid system was used (Fields and Song, 1989). […] In this system, the genes for the candidate interacting proteins are cloned into separate expression vectors. In one expression vector, the sequence of the one candidate protein is cloned in phase with the sequence of the GAL4 DNA-binding domain to generate a hybrid protein with the GAL4 DNA-binding-domain, and in the other vector, the sequence of the second candidate protein is cloned in phase with the sequence of the GAL4 activation domain to generate a hybrid protein with the GAL4-activation domain. The two hybrid vectors are then co-transformed into a yeast host strain having a lacZ or HIS3 reporter gene under the control of upstream GAL4 binding sites. Only those transformed host cells (cotransformants) in which the two hybrid proteins are expressed and are capable of interacting with each other, will be capable of expressing the reporter gene. In the case of the lacZ reporter gene, host cells expressing this gene will become blue in color when X-gal is added to the cultures. […]
In FIG. 1, there is depicted the interaction of the proteins encoded by the Gal4 DNA binding domain and activation-domain constructs (pGBT9 and pGAD-GH) within transfected SFY526 yeasts as assessed by β-galactosidase expression filter assay. […]

Row | Molecule | in vitro binding to GST-MORT-1 fusion protein [1] | binding to p75 TNF receptor in two-hybrid test [2]
1 | MACHβ1: MACH isoform, cDNA SEQ ID NO: 4, amino acid SEQ ID NO: 5; lacks the CED3/ICE homology region (protein) MDFSRNLYDIGEQLDSEDLASLKFLSLDYIPQRKQEPIKDALMLFQRLQEKRMLEESNLSFLKELLFRINRLDLLITYLNTRKEEMERELQTPGRAQISAYRVMLYQISEEVSRSELRSFKFLLQEEISKCKLDDDMNLLDIFIEMEKRVILGEGKLDILKRVCAQINKSLLKIINDYEEFSKERSSSLEGSPDEFSNDFGQSLPNEKQTSGILSDHQQSQFCKSTGESAQTSQH | able to bind | –
2 | MORT-1: Mediator of Receptor-induced Toxicity; protein binding the intracellular domain of FAS-R, SEQ ID NO:2 (protein) VNQAPECRFGGGILGPLGKRRDLARASEPRTEGARRAGPQPRPLADPAMDPFLVLLHSVSSSLSSSELTELKFLCLGRVVKRKLERVQSGLDLFSMLLEQNDLEPGHTELLRELLASLRRHDLLRRVDDFEAGAAAGAAPGEEDLCAAFNVICDNVGKDWRRLARQLKVSDTKIDSIEDRYPRNLTERVRESLRIWKNTEKENATVAHLVGALRSCQMNLVADLVQEVQQARDLQNRSGAMSPMSWNSDASTSEAS | – | not

— patent publication US7799901B2, “Modulators of the function of FAS receptors and other proteins” (Yeda Research and Development Co. Ltd., priority 1995, dated 2010)
